Results published in the domain aggregation screens of Martell et al. (2025).

Assay: soluble fraction after stress (log2 fold change); higher = more stays soluble; pooled small domains, quantitative proteomics
Conditions: stress: 50 degC
In short: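 Pooled custom libraries of small protein domains were each held under stress at 50°C. The read-out, high-throughput quantitative proteomics, tracked how much of each protein stayed soluble. This is reported as a base-two log fold change used to indicate aggregation propensity. Higher values mean more protein remains in solution.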

| Sequence | soluble fraction (log2) |
| --- | --- |
| HMEKAISSLTLEEAKKRLEMVRSEKDASLQIYKETGSETARVTAENYGKEENSLLLHISEMSNIV | -0.469 |
| HMSEDAVKFRAAVEVENGLAQRNLNKNQAALILGVDRSYFTYIISGKKTPSPDMAKRIGLLLGFDWRVFYA | -2.03 |
| HMDATFKVRVSVPDLNIRSGPGTNYAATGRFTGVGVFTITAVQSGQGSSSGWGKLKSGAGWIALDYAKR | -2.39 |
| HMATKVSSGATVRDVADLLGLSSAELIKKLMMMGEMATLTQTLTDESIKSIADEYDRKIEIVSAAE | 0.0948 |
| HMLKHEEIQEYIKEQINSGTWKPKAKLPSLRDMSELFSTSIGTVLTAYSALEKKHIIYSIPRSGYYVLG | -1.11 |
| HMVQVPSLVGISEIEAKTLLTQAGFFVKIVEVFDANQPVGIVLAQAPSAGESRIIGSPVTITVNKAQ | -0.867 |
| HMEEIPYGVISAKAGAAAYDYIKKSIELGIEKKIDGVATAPIQKEAIHMAGISYIGHTEMYQGIT | 0.0739 |
| HMTVSADQTTADAVIKLIDAIGTVSKNSGSAISAARSGYDALTDAQKKLVTNYNKLTQAEQVFSSLS | 0.129 |
| HMLDIQKKGENIAYIEGAGDVIPESLKQIGYHVVTIAPKDINAETLSRFDAVVVGIRAYNTVEDL | -0.244 |
| HMEDINAVLAENLRRLRESRRLSLDAVARLTGVSKSMLGQIERGEVNPTVSTMWKIAGGLKVNFTALFRRE | -1.47 |
| HMETMSGTVKWFNTQKGYGFITGDDGAEYFAHQTQIKMDGFRTLDAGDIVEFDVRSEEKGLAAVNIVP | -0.0597 |
| HMEQETVTVPDLVGKDVVAAQAELHEMGLSGKPDGTGTTVVSQFPVAGARVLKHTNVILYTED | -0.0147 |
| HMEPSERYKALQSLLPDYAKRLKKKGVTRHQLFLEYRLTHPDGYARSRFGTYFQAYLALSHP | -2.27 |
| HMERLKKYLDDVRTFLPGTNPKKVDEILREIESHVLERAEREHGEVNDNAVAMSIKEYGSPEEVAARYYEG | 0.194 |
| HMEHIVNELDRKVIDYLQSHYDAKLNDIAQGIGVSKATATKSIRKLVQTGIVHVVGSSGTGTSYNLTE | -0.152 |
| HMSDGDFLQKIAEEILAQFPDKVKEYQKGKKGLIGFFMGELMKRSKGKADPKVATRILEEILSEKNGSS | 0.17 |
| HMRLPAISYSFARKHGVVLRLDGDRPVASLREGADPAILIEVKRHLDGAMGVEKVSEAAFDQLLSTTYA | -0.484 |
